T1: HMMW micropeptide (recombinant, purified from Escherichia coli BL21) (human)
T1 construct: also called purified HMMW micropeptide; human HMMW micropeptide
T1 peptide: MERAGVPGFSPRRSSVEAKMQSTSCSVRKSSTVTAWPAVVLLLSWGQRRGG


Experiments:
[1] = target: T1, HMMW micropeptide (recombinant, …); experiment: indirect ELISA, HMMW micropeptide coated at 1 ug/ml, antibody dilution 1:12.5K
Method: (§1) The antigen coating concentration of the HMMW micropeptide was 1 μg/ml and 5% milk PBS-T was used for sealing. The dilution multiples of eight antibodies were: 1: 3.125 K/6.25 K/12.5 K/25 K/5O K/100 K. The primary antibodies were incubated at 37° C. for 1 h and the secondary antibodies were incubated at 37° C. for 45 min. A color developing solution was added, reaction was performed at 37° C. for 15 min, the reaction was terminated, and the value was read. It can be seen from Table 2 below that the titers of the eight antibodies all reached 1: 100 K, meeting the requirements for subsequent antigen detection.

[2] = target: T1, HMMW micropeptide (recombinant, …); experiment: indirect ELISA, HMMW micropeptide coated at 1 ug/ml, antibody dilution 1:6.25K
Method: as §1

[3] = target: T1, HMMW micropeptide (recombinant, …); experiment: indirect ELISA, HMMW micropeptide coated at 1 ug/ml, antibody dilution 1:25K
Method: as §1

[4] = target: T1, HMMW micropeptide (recombinant, …); experiment: indirect ELISA, HMMW micropeptide coated at 1 ug/ml
Method: as §1

[5] = target: T1, HMMW micropeptide (recombinant, …); experiment: indirect ELISA, HMMW micropeptide coated at 1 ug/ml, antibody dilution 1:100K
Method: as §1

[6] = target: T1, HMMW micropeptide (recombinant, …); experiment: indirect ELISA, HMMW micropeptide coated at 1 ug/ml, antibody dilution 1:50K
Method: as §1

[7] = target: T1, HMMW micropeptide (recombinant, …); experiment: indirect ELISA, HMMW micropeptide coated at 1 ug/ml, antibody dilution 1:3.125K
Method: as §1

| ELISA reading at antibody dilution 1:12.5K [1] | ELISA reading at antibody dilution 1:6.25K [2] | ELISA reading at antibody dilution 1:25K [3] | titer [4] | ELISA reading at antibody dilution 1:100K [5] | ELISA reading at antibody dilution 1:50K [6] | ELISA reading at antibody dilution 1:3.125K [7] | Binder |
| --- | --- | --- | --- | --- | --- | --- | --- |
| 3.22 | 3.4 | 3.04 | ≥ 100000 dilution (1:x) | 2.54 | 2.92 | 3.57 | Anti-HMMW antibody-3 (antibody, V domains shown, Mouse monoclonal antibody from a BALB/c x SP2/0 hybridoma; also called anti-HMMW-3 antibody) VH: EVKLEESGGGLVQPGGSMKLSCVASGFTFSDYWMNWVRQSPEKGLEWLTEIRLKSDNYATHYAESVKGKFTISRDDSKSTVYLQMNNLRAEDTGIYYCSVETMDFWGQGTSVTVSS VL: QAVVTQESALTTSPGETVTLTCRSSIGAVTTNNYANWVQEKPDRLFTGLIRGTNNRVPGVPARFSGSLIGDKAALTITGAQTEDEAIYFCALWYSNHWVFGGGTKLTVL |
| 3.35 | 3.45 | 3.13 | ≥ 100000 dilution (1:x) | 2.57 | 2.81 | 3.52 | Anti-HMMW antibody-4 (antibody, V domains shown, Mouse monoclonal antibody from a BALB/c x SP2/0 hybridoma; also called anti-HMMW-4 antibody) VH: EVKLEESGGGLVQPGGSMKLSCVASGFTFSDYWMNWVRQSPEKGLEWLTEIRLKSNNYLTHYAESVKGRFTISRDDSKSSVYLQMNNLRAEDTGIYYCSVETMDYWGQGISVTVSS VL: QAVVTQESALTTSSGETVTLTCRSSTGAVTTSNYANWVQEKPDHLFTGLIRGTNNRAPGVPARFSGSLIGDKAALTITGAQTEDEAIYFCALWYSNHWVFGGGTKLTVL |
| 3.23 | 3.35 | 3.19 | ≥ 100000 dilution (1:x) | 2.73 | 2.94 | 3.33 | Anti-HMMW antibody-2 (antibody, V domains shown, Mouse monoclonal antibody from a BALB/c x SP2/0 hybridoma; also called anti-HMMW-2 antibody) VH: EVKLEESGGGLVQPGGSMKVSCVGSGFTFSNYWMNWVRQSPEKGLEWVAEIRLKSNNYATHYAESVKGRFTISRDDSKRSVYLQMNNLRVEDTGIYYCTTEAVDYWGQGTSVTVSS VL: DIVMTQAAFSNPVTLGTSASISCRSSKSLLHSNGITYLYWYLQKPGQSPQLLIYQMSNLASGVPDRFSSSGSGTDFTLRISRVEAEDVGVYYCAQNLELPTFGGGTKLEIKR |
| 2.96 | 3.19 | 2.55 | ≥ 100000 dilution (1:x) | 2.16 | 2.2 | 3.37 | Anti-HMMW antibody-6 (antibody, V domains shown, Mouse monoclonal antibody from a BALB/c x SP2/0 hybridoma; also called anti-HMMW-6 antibody) VH: EVKLEESGGGLVQPGGSMKLSCVASGFTFSNYWMNWVRQSPEKGLEWVAEIRLKSNNYATHYAESVTGRFTISRDDSKSSVYLQMNNLRAEDTGIYYCTLEAVDYWGQGTSVTVSS VL: DIVMTQAAFSNPVTLGTSASISCRSSKSLLHSDGITYLYWFLQKPGQSPQLLIYQMSNLASGVPDRFSSSGSGTDFTLRISRVEAEDVGVYYCAQNLELPTFGGGTKLEIK |
| 2.38 | 2.59 | 2.13 | ≥ 100000 dilution (1:x) | 1.14 | 1.85 | 2.85 | Anti-HMMW antibody-1 (antibody, V domains shown, Mouse monoclonal antibody from a BALB/c x SP2/0 hybridoma; also called anti-HMMW-1 antibody) VH: EVKLEESGGGLVQPGGSMKFSCVASGFTFSNYWMNWVRQSPERGLEWVAEIKLKSNNYATLYAESVKGRFTISRDDSKSSVYLQVNNLRAEDTGIYYCITEIFDYWGQGTTLTVSS VL: QAVVTQESALTTSPGETVTLTCRSSTGAVTTSNYATWVQEKPDHLFTGLIVGANNRAPGVPARFSGSLIGDKAALTITGAQTEDEAIYFCALWFLNHWVFGGGTKLTVLG |
| 2.56 | 2.81 | 2.48 | ≥ 100000 dilution (1:x) | 2 | 2.31 | 2.92 | Anti-HMMW antibody-5 (antibody, V domains shown, Mouse monoclonal antibody from a BALB/c x SP2/0 hybridoma; also called anti-HMMW-5 antibody) VH: EVKLEESGGGLVQPGGSMKLSCVVSGFTFSNYWMNWVRQSPERGLEWVAEIKLKSNNYATLYAASVKGRFTISRDDSKSSVYLQVNNLRTEDTGIYYCITEIFDYWGQGTTLTVSS VL: QTVVTQESALTTSPGETVTLTCRSSTGSVTTSNYATWVQEKPDHLFTGLIVGANNRAPGVPARFSGSLIGDKAALTITGAQTEDEAIYFCALWFIDHWVFGGGTKLTVL |
| 3.11 | 3.16 | 2.97 | ≥ 100000 dilution (1:x) | 2.79 | 2.96 | 3.45 | Anti-HMMW antibody-8 (antibody, V domains shown, Mouse monoclonal antibody from a BALB/c x SP2/0 hybridoma; also called anti-HMMW-8 antibody) VH: EVKLEESGGGLVQPGGSMKVSCVASGFTFSNYWMNWVRQSPEKGLEWVAEIKLKSDIDATNYAESVKGRFTISRDDSKSSVSLQMNNLRAEDTGIYYCSTEIFDYWGQGTTLTVSS VL: not shown |
| 2.27 | 2.26 | 2.15 | ≥ 100000 dilution (1:x) | 1.7 | 2.14 | 2.4 | Anti-HMMW antibody-7 (antibody, V domains shown, Mouse monoclonal antibody from a BALB/c x SP2/0 hybridoma; also called anti-HMMW-7 antibody) VH: EVKLEESGGGLVQPGGSKKLSCFASGFTFSNYWMNWVRQSPEKGLEWVAEIQLKSNNYATHYAESVKGRFTISRDDSKSSVYLQMNNLRAEDTGIYYCTTEIFDFWGQGTTLTVSS VL: not shown |
